Data on four molecules can be found in PMC2852410, “Shared Active Site Architecture between the Large Subunit of Eukaryotic Primase and DNA Photolyase”.

Data set [1] has as its target T1, PriL-CTD (Saccharomyces cerevisiae, UniProt P20457 316-512, del381-383).
T1 sequence: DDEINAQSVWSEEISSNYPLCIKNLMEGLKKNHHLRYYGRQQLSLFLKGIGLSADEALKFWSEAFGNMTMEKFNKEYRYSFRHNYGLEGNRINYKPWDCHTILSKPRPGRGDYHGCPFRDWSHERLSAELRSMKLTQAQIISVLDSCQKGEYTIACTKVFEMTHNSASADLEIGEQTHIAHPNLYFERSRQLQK
Nature of the data set: fluorescence anisotropy; Kd similar to the 70 µM of the mixed 20mer; data not shown; Buffer F: 20 mM HEPES pH 6.8, 150 mM KCl, 1 mM EDTA, 25 C; SPR in buffer F + 0.005% P20, 25 C. The conditions noted are these: protein: recombinant; tags: N-terminal His6, removed by TEV; label: fluorescein; single strand.

Data set [2] has as its target T2, DNA primase large subunit PriL, full length;DNA primase small subunit PriS (Saccharomyces cerevisiae;Saccharomyces …, UniProt P20457;P10363 1-528;1-409, |).
T2 sequence 1: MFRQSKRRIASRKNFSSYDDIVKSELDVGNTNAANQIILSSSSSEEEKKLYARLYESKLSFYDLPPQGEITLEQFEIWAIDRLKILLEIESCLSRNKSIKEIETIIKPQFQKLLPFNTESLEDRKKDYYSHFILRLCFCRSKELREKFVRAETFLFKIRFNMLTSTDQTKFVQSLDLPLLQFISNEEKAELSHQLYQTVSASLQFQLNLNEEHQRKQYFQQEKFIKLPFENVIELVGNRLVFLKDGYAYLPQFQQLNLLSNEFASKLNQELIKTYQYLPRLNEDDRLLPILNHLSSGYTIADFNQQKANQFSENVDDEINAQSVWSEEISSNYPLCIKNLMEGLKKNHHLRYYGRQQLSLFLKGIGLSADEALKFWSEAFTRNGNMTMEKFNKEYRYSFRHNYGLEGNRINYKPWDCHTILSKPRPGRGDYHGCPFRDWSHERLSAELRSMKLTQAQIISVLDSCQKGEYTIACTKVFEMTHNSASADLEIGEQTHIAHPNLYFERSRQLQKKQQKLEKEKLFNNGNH
T2 sequence 2: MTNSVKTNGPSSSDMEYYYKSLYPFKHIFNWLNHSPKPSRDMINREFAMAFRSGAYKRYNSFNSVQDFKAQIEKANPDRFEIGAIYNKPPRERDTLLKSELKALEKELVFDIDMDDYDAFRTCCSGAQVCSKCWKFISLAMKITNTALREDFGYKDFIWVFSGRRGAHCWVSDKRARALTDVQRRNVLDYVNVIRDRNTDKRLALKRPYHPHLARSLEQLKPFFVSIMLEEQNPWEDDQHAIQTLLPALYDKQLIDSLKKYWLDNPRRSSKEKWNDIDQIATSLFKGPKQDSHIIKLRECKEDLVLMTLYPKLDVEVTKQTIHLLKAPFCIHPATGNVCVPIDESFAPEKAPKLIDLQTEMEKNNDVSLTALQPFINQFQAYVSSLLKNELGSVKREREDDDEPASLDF
Kind of data set: fluorescence anisotropy; 20 nM DNA; Buffer F: 20 mM HEPES pH 6.8, 150 mM KCl, 1 mM EDTA, 25 C; SPR in buffer F + 0.005% P20, 25 C. The conditions noted are these: protein: recombinant;recombinant; tags: ;; copies: 1;1; label: fluorescein; single strand. For orientation: In fluorescence polarisation assays a small probe gives low polarisation when free and higher when bound to something large.

For data set [3], the target named is T1, PriL-CTD. Nature of the data set: fluorescence anisotropy; 80 nM DNA; Buffer F: 20 mM HEPES pH 6.8, 150 mM KCl, 1 mM EDTA, 25 C; SPR in buffer F + 0.005% P20, 25 C. Particulars: protein: recombinant, tags: N-terminal His6, removed by TEV.

B1: poly(dT) 20mer (ssDNA)
DNA: TTTTTTTTTTTTTTTTTTTT
On to B1, for which the binding result in data set [1] was “binds”.

B2: poly(dT) 40mer (ssDNA)
DNA: TTTTTTTTTTTTTTTTTTTTTTTTTTTTTTTTTTTTTTTT
In general, Kd refers to the free concentration of one partner at which half of the binding sites on the other are occupied at equilibrium, for simple one-to-one binding. Consider B2, for which the Kd in data set [2] was 1700 nM.

B3: dsDNA 20mer (fluorescein) (dsDNA)
DNA 1: GGTGAGAGGAGAATGGAAGT
DNA 2: ACTTCCATTCTCCTCTCACC
As to B3, the Kd in data set [3] (label: 5' fluorescein on S2, the printed complement S1 carries 5' biotin, blunt) was 178 ± 1.3 µM.

B4: ssDNA 20mer (fluorescein) (ssDNA)
DNA: GGTGAGAGGAGAATGGAAGT
As to B4, the Kd in data set [3] (label: 5' fluorescein, single strand) is 70 ± 0.2 µM.
